In publication PMC4644993, “The second virial coefficient as a predictor of protein aggregation propensity: A self-interaction chromatography study” (European Journal of Pharmaceutics and Biopharmaceutics, 2015):

Biological target: the molecule itself
Assay: self-interaction chromatography; the same protein immobilised on Toyopearl particles (surface coverage ~30-40%) and injected (5-15 mg/mL, 10 uL, 0.5 mL/min); b2 from first-moment retention; increasing ionic strength of different sodium salts; 20 mM sodium phosphate pH 7.0 for lactoferrin, catalase and con A, 50 mM sodium acetate pH 4.5 for lysozyme

B1: catalase from bovine liver (enzyme, UniProt P00432 1-527, looked up)
chain: MADNRDPASDQMKHWKEQRAAQKPDVLTTGGGNPVGDKLNSLTVGPRGPLLVQDVVFTDEMAHFDRERIPERVVHAKGAGAFGYFEVTHDITRYSKAKVFEHIGKRTPIAVRFSTVAGESGSADTVRDPRGFAVKFYTEDGNWDLVGNNTPIFFIRDALLFPSFIHSQKRNPQTHLKDPDMVWDFWSLRPESLHQVSFLFSDRGIPDGHRHMNGYGSHTFKLVNANGEAVYCKFHYKTDQGIKNLSVEDAARLAHEDPDYGLRDLFNAIATGNYPSWTLYIQVMTFSEAEIFPFNPFDLTKVWPHGDYPLIPVGKLVLNRNPVNYFAEVEQLAFDPSNMPPGIEPSPDKMLQGRLFAYPDTHRHRLGPNYLQIPVNCPYRARVANYQRDGPMCMMDNQGGAPNYYPNSFSAPEHQPSALEHRTHFSGDVQRFNSANDDNVTQVRTFYLKVLNEEQRKRLCENIAGHLKDAQLFIQKKAVKNFSDVHPEYGSRIQALLDKYNEEKPKNAVHTYVQHGSHLSAREKANL
notes: catalase from bovine liver, MW 250 kD, pI 5.4; Immobilised copy is coupled to Toyopearl AF-Amino-650M particles with EDC and NHS; source: bought: Sigma Aldrich (C9322)
B1: binds.
